Target: T1, preassembled pyrene-actin filaments (Gallus gallus, UniProt P68139)
T1 construct: Extract chicken breast acetone powder (as prepared above) in Buffer A; from tissue; host or cells: chicken breast muscle (actin); E. coli (cofilin, made in house)
Test: pyrene actin assay (fluorescence of preassembled pyrene-actin filaments)
Assay type: biochemical, chicken
Conditions: addition of stoichiometric amounts of cofilin to preassembled pyrene-actin filaments; binding to actin polymer and enhancing depolymerization combined
Description: Assays for the interaction of A. fumigatus cofilin and any other cofilin with actin in 384-well plates using a fluorescence as the detection means have been developed. The assays employ pyrene-labeled actin (Pollard (1984) J Cell Biol 99:769-777).
Upon addition of cofilin to filamentous pyrene-actin, two well-characterized biochemical activities can be monitored. First, cofilin binds to the filaments and partially quenches the pyrene fluorescence. Second, it induces filament disassembly, further decreasing pyrene fluorescence. The decrease in fluorescence that results when cofilin is added to filamentous actin is monitored (FIG. 3). An inhibitor of the interaction of cofilin with pyrene-actin will result in an increase in fluorescence.
This very robust signal can be exploited to an assay for modulators of cofilin. Chicken skeletal actin was used because it can be purified in quantities needed for high throughput screening; it is 90% identical in amino acid sequence to fungal actin, and it can assemble into copolymers with fungal actin. Pyrene-labeled skeletal actin has been prepared and characterized as to its polymerization properties as well as for its interaction with fungal cofilin.

B1: A. fumigatus cofilin: protein of A. fumigatus capable of binding actin, amino acid sequence SEQ ID NO:2, expressed in E. coli (protein, listed as Aspergillus fumigatus)
chain: MALASGVSIADECITAFNDFRMSGNKANKTKFIIFKIADNKKEVVIDEVSQEEDYEVFRSRLEATKDSKGNPAPRYAVYDVEYDLGGGEGKRSKIVFISWVPSDTPTLWSMIYASTRENLKNALNIHTSIHADDKGDIEWKTVLAEASGGKAGK
reduction in fluorescence intensity: 3-5 fold
